Reference: US11530263B2, “IL-18 binding protein (IL-18BP) in inflammatory diseases” (AB2 BIO SA, priority 2013, dated 2022)
Positions count from the first letter of the chain named.

T1: human interleukin-18 (Homo sapiens, UniProt Q14116)
T1 sequence (Q14116 37-193): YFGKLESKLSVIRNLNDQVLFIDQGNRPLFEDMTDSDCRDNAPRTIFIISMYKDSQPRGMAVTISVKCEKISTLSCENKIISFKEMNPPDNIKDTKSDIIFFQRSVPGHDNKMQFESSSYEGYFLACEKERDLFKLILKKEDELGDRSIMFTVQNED

T2: IL-18 previously complexed to monoclonal antibody (Homo sapiens, UniProt Q14116)
T2 sequence (Q14116 37-193): T1 sequence (Q14116 37-193)

T3: IL-18 previously complexed to IL-18BP (Homo sapiens, UniProt Q14116)
T3 sequence (Q14116 37-193): T1 sequence (Q14116 37-193)
T3 sequence (O95998 31-194 partner): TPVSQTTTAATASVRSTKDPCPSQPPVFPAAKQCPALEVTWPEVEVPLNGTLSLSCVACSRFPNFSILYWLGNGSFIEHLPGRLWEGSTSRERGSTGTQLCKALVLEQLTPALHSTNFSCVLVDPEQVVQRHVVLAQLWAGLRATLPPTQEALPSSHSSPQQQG

B1: 107C6: monoclonal anti-IL-18 antibody; VH SEQ ID NO: 9, VK SEQ ID NO: 10 (antibody, V domains shown)
VH: QIQLVQSGPELKKPGETVKLSCRASGYTFTNYGMNWVKQAPGKGLKWMGWINTYSGVPTYADDFKGQFAFSLETSAATAFLQINNLKDEDTATYFCAREGYSTTRSMDYWGQGTSVTVSS
VL: DIVMSQSPSSLAVSAGEKVTMSCKSSQSLLDSRTRKNYLVWYQQKPGQSPKLLIYWASTRGSGVPDRFTGSGSGTDFTLTISSVQAEDLAVYYCKQSYNLRTFGGGTKLEIK
modifications: Antibody 107C6 VH sequence; Antibody 107C6 VK sequence
B2: 108F8: monoclonal anti-IL-18 antibody; VH SEQ ID NO: 11, VK SEQ ID NO: 12 (antibody, V domains shown)
VH: B1 VH with E10D, L11S
VL: B1 VL
modifications: Antibody 108F8 VH sequence; Antibody 108F8 VK sequence
B3: 132H4: monoclonal anti-IL-18 antibody; VH SEQ ID NO: 23, VK SEQ ID NO: 24 (antibody, V domains shown)
VH: EVKLVESGGGLVKPGGSLKLSCAASGFTFSNYAMSWVRQNPAKRLEWVATISSGGANIYYPDSVKGRFIISRDNARNTLYLQMSSLRSEDTAMYYCARGDYFNHFWFAYWGQGTLVTVSA
VL: DVLMTQTPLSLPVSLGDQASISCRSSQSIVHSNGNTYLEWYLQKPGQSPKFLIYKVSNRFSGVPDRFSGSGSGTDFTLKINRVEAEDLGIYYCFQGSHVPWTFGGGTKLEIK
modifications: Antibody 132H4 VH sequence; Antibody 132H4 VK sequence
B4: 109A6: monoclonal anti-IL-18 antibody; VH SEQ ID NO: 13, VK SEQ ID NO: 14 (antibody, V domains shown)
VH: EVQLQQSGAELVKPGASVKLSCTASGFKIKDTYIHWVIQRPAQGLEWIGRIDPANGNTIYGSKFQGKATLTADTSSNTAYIHLSSLTSGDSAVYYCAGYVWFAYWGQGTLVTVSA
VL: DVVMTQVPLSLPVSLGDQASISCRSSQRLVHSNGNTYLHWFLQKPGQSPKLLIYTVSNRFSGVPDRFSGSGSGTDFTLKISRVEAEDLGVYFCSQSTLVPWTFGGGTKLEIK
modifications: Antibody 109A6 VH sequence; Antibody 109A6 VK sequence
B5: 131B4: monoclonal anti-IL-18 antibody; VH SEQ ID NO: 18, VK SEQ ID NO: 19 (antibody, V domains shown)
VH: B4 VH with L4V, V37L, I38K, A42E, L70I, H82Q, S91T, Y95F
VL: DAVLTQTPLSLPVSLGDQASISCTSSQSLVHSNGNTYLHWYLQKPGQSPKLLIYKVSDRFSGVPDRFSGSGSGTDFTLMITRVEAEDLGVYFCSQSSLVPWTFGGGTKLEVK
modifications: Antibody 131B4 VH sequence; Antibody 131B4 VK sequence

What follows are molecules tested against T1, human interleukin-18 (assay: Luminex screening: monoclonal antibodies binding on IL-18). Conditions: IL-18 on Luminex beads.
From the text: (§1) Mice were vaccinated aginst human interleukin-18 using a technology allowing immunization with properly folded proteins. Prior to immunization, genetically modified mice were selected for major histocompatibility complexes supposedly sensitive to IL-18 surface area epitopes binding IL-18BP. Following immunization, B cells were isolated from spleen and hybridized following standard hybridoma technology. Hybridoma were sorted onto microplates and then tested for expression of monoclonal anti-IL-18 antibodies targeting IL-18 epitopes included in IL-18BP binding site. The screening was performed in 3 sequential and selective steps: • First step. […] Potential antibodies targeting IL-18 on IL-18BP binding site were rescreened in competition with IL-18BP. For this, monoclonal antibodies were bound to Luminex beads carrying IL-18. The complex was then exposed to biotinylated IL-18BP in order to identify interference to previously identified anti-IL-18 antibodies (see Table 1, Column #2). […] A third screening program was undertaken with Luminex beads linked to IL-18BP and then complexed to interleukin-18, assuring the presentation of properly folded recombinant IL-18 to positive antibody candidates.

Monoclonal antibodies binding on IL-18, Fluorescence intensity	Molecule
26 250	B1
25 126	B2
23 839	B3
25 848	B4
24 838	B5

Each molecule was assayed against T2, IL-18 previously complexed to monoclonal antibody (assay: Luminex screening: biotinylated IL-18BP binding on IL-18 previously complexed to monoclonal antibody). Conditions: Column #2.
From the text: as §1

IL-18BP binding on IL-18 previously complexed to monoclonal antibody, Fluorescence intensity	Molecule
1 389	B1
1 292	B2
1 488	B3
913	B4
1 656	B5

Each molecule was assayed against T3, IL-18 previously complexed to IL-18BP (assay: Luminex screening: monoclonal antibody binding on IL-18 previously complexed to IL-18BP). Conditions: after third screening step, mRNA sequencing and clone dilution.
From the text: as §1

Molecule	Binding to IL-18 on the IL-18BP binding site
B1	confirmed to bind to IL-18 on the IL-18BP binding site
B2	confirmed to bind to IL-18 on the IL-18BP binding site
B3	confirmed to bind to IL-18 on the IL-18BP binding site
B4	confirmed to bind to IL-18 on the IL-18BP binding site
B5	confirmed to bind to IL-18 on the IL-18BP binding site
